The results in this text go back to article PMC4036818.

pKd: −log10 of the molar value. Like-named read-outs stand apart in the source and are kept apart here.

Assay [1] concerns the target native SARS-CoV 3CLpro (3C-like protease, nsp5) with an n-terminal methionine (SARS-CoV (Urbani strain)) (UniProt P0C6X7). Put plainly: enzyme activity against enzyme concentration.
For assay [2] the target is unchanged. Put plainly: enzyme activity against enzyme concentration. This is another data set of the same source.

As usually defined, the pKd is the negative decadic logarithm of the Kd, by convention in mol/L. The low end stands for a large Kd, the high end for a small Kd. As to “native SARS-CoV 3CLpro (3C-like protease, nsp5) with an n-terminal methionine (from UniProt P0C6X7 3241-3544) (enzyme)”, the results for the pKd in assay [1] and in assay [2] were 6.64 and 6.00 to 6.60, respectively.
